Measurements as given in article PMC10696041.

Target: C-propeptide of collagen III
Assay: SPR; C-propeptide III immobilised by amine coupling on CM5; 10 mM HEPES pH 7.4, 0.15 M NaCl, 5 mM CaCl2, 0.05% P20, 25 °C

B1: procollagen C-proteinase enhancer-2 with N-terminal 6His-tag (natural protein)
chain: QSPERPVFTCGGILTGESGFIGSEGFPGVYPPNSKCTWKITVPEGKVVVLNFRFIDLESDNLCRYDFVDVYNGHANGQRIGRFCGTFRPGALVSSGNKMMVQMISDANTAGNGFMAMFSAAEPNERGDQYCGGLLDRPSGSFKTPNWPDRDYPAGVTCVWHIVAPKNQLIELKFEKFDVERDNYCRYDYVAVFNGGEVNDARRIGKYCGDSPPAPIVSERNELLIQFLSDLSLTADGFIGHYIFRPKKLPTTTEQPVTTTFPVTTGLKPTVALCQQKCRRTGTLEGNYCSSDFVLAGTVITTITRDGSLHATVSIINIYKEGNLAIQQAGKNMSARLTVVCKQCPLLRRGLNYIIMGQVGEDGRGKIMPNSFIMMFKTKNQKLLDALKNKQC
B1 gave a Kd of 45 nM.
